Assay results reported in US20160039904A1, “STABILIZED SINGLE HUMAN CD4 DOMAINS AND FUSION PROTEINS” (priority 2013, published 2016).

Tests used:
[1] = target: HIV-1 Env of isolate CM240.EC1 (HIV-1); experiment: cell-based or functional assay
[2] = target: HIV-1 Env of isolate Bal (HIV-1); experiment: cell-based or functional assay
[3] = target: HIV-1 Env of isolate GXC (HIV-1); experiment: cell-based or functional assay
[4] = target: HIV-1 Env of isolate JRFL (HIV-1); experiment: cell-based or functional assay
[5] = target: HIV-1 Env of isolate Z2Z6 (HIV-1); experiment: cell-based or functional assay
[6] = target: HIV-1 Env of isolate N1 1046.e3 PV (HIV-1); experiment: cell-based or functional assay
[7] = target: HIV-1 Env of isolate PBL286.VRC36aPV (HIV-1); experiment: cell-based or functional assay
[8] = target: HIV-1 Env of isolate BZ167.ec9 (HIV-1); experiment: cell-based or functional assay
[9] = target: HIV-1 Env of isolate 89.6 (HIV-1); experiment: cell-based or functional assay
[10] = target: HIV-1 Env of isolate JRCSF (HIV-1) (UniProt P20871); experiment: cell-based or functional assay
[11] = target: HIV-1 Env of isolate GXE (HIV-1); experiment: cell-based or functional assay
[12] = target: HIV-1 Env of isolate KNH1144.EC1 (HIV-1); experiment: cell-based or functional assay
[13] = target: HIV-1 Env of isolate 57128.VRC18 (HIV-1); experiment: cell-based or functional assay
[14] = target: HIV-1 Env of isolate R2 (HIV-1); experiment: cell-based or functional assay
[15] = target: HIV-1 Env of isolate 55815.EC3 (HIV-1); experiment: cell-based or functional assay
[16] = target: HIV-1 Env of isolate Bal.EC1 TC (HIV-1); experiment: cell-based or functional assay
[17] = target: HIV-1 Env of isolate CAM0015BBY.EC3 (HIV-1); experiment: cell-based or functional assay
[18] = target: HIV-1 Env of isolate 92UG037.8 (HIV-1); experiment: cell-based or functional assay
[19] = target: HIV-1 Env of isolate AD8 (HIV-1); experiment: cell-based or functional assay
[20] = target: HIV-1 Env of isolate GS-015.EC12 (HIV-1); experiment: cell-based or functional assay
[21] = target: HIV-1 Env of isolate IIIB (HIV-1); experiment: cell-based or functional assay
[22] = target: HIV-1 Env of isolate NL4-3 (HIV-1); experiment: cell-based or functional assay
[23] = target: HIV-1 Env of isolate CM243 (HIV-1); experiment: cell-based or functional assay
[24] = target: HIV-1 Env of isolate A07412VRC12A (HIV-1); experiment: cell-based or functional assay
[25] = target: HIV-1 Env of isolate KNH1088.EC5 (HIV-1); experiment: cell-based or functional assay

Sequence of HIV-1 Env of isolate JRCSF (HIV-1) (P20871 32-848 limits assumed): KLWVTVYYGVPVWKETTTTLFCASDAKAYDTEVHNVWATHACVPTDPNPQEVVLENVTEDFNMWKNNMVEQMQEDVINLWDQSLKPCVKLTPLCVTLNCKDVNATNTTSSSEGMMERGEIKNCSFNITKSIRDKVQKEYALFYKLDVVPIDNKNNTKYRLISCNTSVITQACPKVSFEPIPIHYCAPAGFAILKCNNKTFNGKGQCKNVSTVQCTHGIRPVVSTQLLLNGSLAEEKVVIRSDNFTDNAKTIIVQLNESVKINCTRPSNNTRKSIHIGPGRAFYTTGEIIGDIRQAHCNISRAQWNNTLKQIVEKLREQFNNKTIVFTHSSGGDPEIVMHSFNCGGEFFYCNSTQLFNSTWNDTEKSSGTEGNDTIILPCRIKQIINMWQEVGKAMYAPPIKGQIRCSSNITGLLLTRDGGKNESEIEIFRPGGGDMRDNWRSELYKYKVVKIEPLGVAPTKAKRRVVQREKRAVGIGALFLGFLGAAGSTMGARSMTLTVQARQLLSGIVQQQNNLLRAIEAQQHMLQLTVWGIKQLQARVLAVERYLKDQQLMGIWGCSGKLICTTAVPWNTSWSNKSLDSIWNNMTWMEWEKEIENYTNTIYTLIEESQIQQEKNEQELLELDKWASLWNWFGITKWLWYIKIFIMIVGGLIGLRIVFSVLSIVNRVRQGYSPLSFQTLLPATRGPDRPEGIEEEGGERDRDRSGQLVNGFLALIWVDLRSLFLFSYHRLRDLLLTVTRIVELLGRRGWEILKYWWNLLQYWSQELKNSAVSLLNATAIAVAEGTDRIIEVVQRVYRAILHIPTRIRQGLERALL

D1D2 (receptor)
EC50 (read off the curve) of the enhancement of m36h1Fc binding (gp140Con-s (HIV-1)): 10 to 100 nM

VRC01 (antibody)
IC50, neutralization in TZM-bl cell-based assay [1]: 0.66 nM
IC50, inhibition of Env-mediated cell-cell fusion [2]: 2.6 nM
IC50, neutralization of pseudotyped HIV-1 [2]: 0.11 nM
IC90, inhibition of Env-mediated cell-cell fusion [2]: 24 nM
IC90, neutralization of pseudotyped HIV-1 [2]: 0.56 nM
IC90, neutralization of pseudotyped HIV-1 [3]: 6.6 nM
IC50, neutralization of pseudotyped HIV-1 [4]: 0.31 nM
IC90, neutralization of pseudotyped HIV-1 [4]: 0.82 nM
IC50, neutralization of pseudotyped HIV-1 [5]: 0.11 nM
IC90, neutralization of pseudotyped HIV-1 [5]: 0.85 nM
IC50, neutralization in TZM-bl cell-based assay [6]: 4.2 nM
IC90, neutralization in TZM-bl cell-based assay [7]: 10 nM
IC90, neutralization in TZM-bl cell-based assay [8]: 31 nM
IC50, neutralization of pseudotyped HIV-1 [9]: 0.37 nM
IC50, neutralization of pseudotyped HIV-1 [10]: 0.28 nM
IC90, neutralization of pseudotyped HIV-1 [10]: 5.6 nM
IC50, neutralization of pseudotyped HIV-1 [11]: 2 nM
IC90, neutralization of pseudotyped HIV-1 [11]: 26 nM
IC90, neutralization in TZM-bl cell-based assay [12]: 9.5 nM
IC50, neutralization in TZM-bl cell-based assay [13]: > 167 nM
IC90, neutralization in TZM-bl cell-based assay [13]: > 167 nM
IC50, neutralization of pseudotyped HIV-1 [14]: 0.34 nM
IC90, neutralization of pseudotyped HIV-1 [14]: 4.4 nM
IC50, neutralization in TZM-bl cell-based assay [15]: 0.33 nM
IC90, neutralization in TZM-bl cell-based assay [15]: 2.6 nM
IC50, neutralization in TZM-bl cell-based assay [16]: 0.39 nM
IC90, neutralization in TZM-bl cell-based assay [16]: 5.2 nM
IC50, neutralization in TZM-bl cell-based assay [17]: 21 nM
IC90, neutralization in TZM-bl cell-based assay [17]: > 167 nM
IC50, neutralization of pseudotyped HIV-1 [18]: 0.33 nM
IC90, neutralization of pseudotyped HIV-1 [18]: 3.8 nM
IC50, neutralization of pseudotyped HIV-1 [19]: 0.36 nM
IC90, neutralization of pseudotyped HIV-1 [19]: 4.3 nM
IC50, neutralization in TZM-bl cell-based assay [20]: > 167 nM
IC90, neutralization in TZM-bl cell-based assay [20]: > 167 nM
IC50, neutralization of pseudotyped HIV-1 [21]: 0.26 nM
IC90, neutralization of pseudotyped HIV-1 [21]: 0.83 nM
IC50, neutralization of pseudotyped HIV-1 [22]: 0.25 nM
IC90, neutralization of pseudotyped HIV-1 [22]: 2.6 nM
IC50, neutralization of pseudotyped HIV-1 [23]: 0.53 nM
IC90, neutralization of pseudotyped HIV-1 [23]: 9.5 nM
IC50, neutralization in TZM-bl cell-based assay [24]: 1.3 nM
IC90, neutralization in TZM-bl cell-based assay [24]: 6 nM
IC50, neutralization in TZM-bl cell-based assay [25]: 3 nM

2G12 (antibody)
IC50, inhibition of Env-mediated cell-cell fusion [2]: 38 nM
IC90, inhibition of Env-mediated cell-cell fusion [2]: > 67 nM
IC90, neutralization of pseudotyped HIV-1 [2]: 41 nM
IC50, neutralization of pseudotyped HIV-1; '-' = No significant neutralization at the highest antibody concentration (67 nM) tested [3]: > 67 nM
IC90, neutralization of pseudotyped HIV-1; '-' = No significant neutralization at the highest antibody concentration (67 nM) tested [3]: > 67 nM
IC50, neutralization of pseudotyped HIV-1 [4]: 3 nM
IC90, inhibition of Env-mediated cell-cell fusion [4]: 67 nM
IC50, neutralization of pseudotyped HIV-1 [5]: 0.7 nM
IC50, neutralization of pseudotyped HIV-1 [9]: 1.3 nM
IC90, neutralization of pseudotyped HIV-1 [9]: 43 nM
IC50, neutralization of pseudotyped HIV-1 [10]: 0.58 nM
IC90, neutralization of pseudotyped HIV-1 [10]: 9.3 nM
IC50, neutralization of pseudotyped HIV-1; '-' = No significant neutralization at the highest antibody concentration (67 nM) tested [11]: > 67 nM
IC90, neutralization of pseudotyped HIV-1; '-' = No significant neutralization at the highest antibody concentration (67 nM) tested [11]: > 67 nM
IC50, neutralization of pseudotyped HIV-1 [14]: 0.68 nM
IC90, neutralization of pseudotyped HIV-1 [14]: 4.6 nM
IC50, neutralization of pseudotyped HIV-1 [18]: 0.53 nM
IC50, neutralization of pseudotyped HIV-1 [21]: 1.5 nM
IC90, neutralization of pseudotyped HIV-1 [21]: 9.3 nM
IC50, neutralization of pseudotyped HIV-1 [22]: 1.3 nM
IC50, neutralization of pseudotyped HIV-1; '-' = No significant neutralization at the highest antibody concentration (67 nM) tested [23]: > 67 nM
IC90, neutralization of pseudotyped HIV-1; '-' = No significant neutralization at the highest antibody concentration (67 nM) tested [23]: > 67 nM
